Here are results for eleven molecules from patent publication US20120090043A1, “TARGETS FOR RETROVIRUS ASSOCIATED DISEASES” (priority 2009, published 2012).

B1: CCDC24: human host interactor protein, Gene ID 149473, expressed from transfected ORF vector (protein)
chain: MLRHSPSLWELVEEHVPLRERREVKRILGEAAVDLSLELRAEVAMLRALLQEARSSQAPSSRPISDPSSLLAPPPLLKDLLRQELRQLLQGLRHKAICEGRDQAQAWVQYSPRVLHFALEEPRCDLPEQEIFQMRGGGPSSGHRDLSIIKDQLNVSNIDQVARHLRGLLEEECHTLEREILILQRCLEEEYLRPCHPSEAALEPTLAELKEQKKAMEQELQASVGPSCVSPNHRQRPLGSSTQGLRPPLPLCGVAPLQCCLPAPPLEPYLRPRGQSATHRWGRQLQCSPREGPASTPMSSAAPQAPA
B2: HSFY1: human host interactor protein, Gene ID 86614, expressed from transfected ORF vector (protein)
chain: MAHVSSETQDVSPKDELTASEASTRSPLCEHTFPGDSDLRSMIEEHAFQVLSQGSLLESPSYTVCVSEPDKDDDFLSLNFPRKLWKIVESDQFKSISWDENGTCIVINEELFKKEILETKAPYRIFQTDAIKSFVRQLNLYGFSKIQQNFQRSAFLATFLSEEKESSVLSKLKFYYNPNFKRGYPQLLVRVKRRIGVKNASPISTLFNEDFNKKHFRAGANMENHNSALAAEASEESLFSASKNLNMPLTRESSVRQIIANSSVPIRSGFPPPSPSTSVGPSEQIATDQHAILNQLTTIHMHSHSTYMQARGHIVNFITTTTSQYHIISPLQNGYFGLTVEPSAVPTRYPLVSVNEAPYRNMLPAGNPWLQMPTIADRSAAPHSRLALQPSPLDKYHPNYN
B3: FATE1: human host interactor protein, Gene ID 89885, expressed from transfected ORF vector (protein)
chain: MAGGPPNTKAEMEMSLAEELNHGRQGENQEHLVIAEMMELGSRSRGASQKKQKLEQKAAGSASAKRVWNMTATRPKKMGSQLPKPRMLRESGHGDAHLQEYAGNFQGIRFHYDRNPGTDAVAQTSLEEFNVLEMEVMRRQLYAVNRRLRALEEQGATWRHRETLIIAVLVSASIANLWLWMNQ
B4: FLJ22471: human host interactor protein, Gene ID 80212, expressed from transfected ORF vector (protein)
chain: MTSPHFSSYDEGPLDVSMAATNLENQLHSAQKNLLFLQREHASTLKGLHSEIRRLQQHCTDLTYELTVKSSEQTGDGTSKSSELKKRCEELEAQLKVKENENAELLKELEQKNAMITVLENTIKEREKKYLEELKAKSHKLTLLSSELEQRASTIAYLTSQLHAAKKKLMSSSGTSDASPSGSPVLASYKPAPPKDKLPETPRRRMKKSLSAPLHPEFEEVYRFGAESRKLLLREPVDAMPDPTPFLLARESAEVHLIKERPLVIPPIASDRSGEQHSPAREKPHKAHVGVAHRIHHATPPQAQPEVKTLAVDQVNGGKVVRKHSGTDRTV
B5: DHRS10: human host interactor protein, Gene ID 51171, expressed from transfected ORF vector (protein)
chain: MATGTRYAGKVVVVTGGGRGIGAGIVRAFVNSGARVVICDKDESGGRALEQELPGAVFILCDVTQEDDVKTLVSETIRRFGRLDCVVNNAGHHPPPQRPEETSAQGFRQLLELNLLGTYTLTKLALPYLRKSQGNVINISSLVGAIGQAQAVPYVATKGAVTAMTKALALDESPYGVRVNCISPGNIWTPLWEELAALMPDPRATIREGMLAQPLGRMGQPAEVGAAAVFLASEANFCTGIELLVTGGAELGYGCKASRSTPVDAPDIPS
B6: DGCR6L: human host interactor protein, Gene ID 85359, expressed from transfected ORF vector (protein)
chain: MERYAAALEEVADGARQQERHYQLLSALQSLVKELPSSFQQRLSYTTLSDLALALLDGTVFEIVQGLLEIQHLTEKSLYNQRLRLQNEHRVLRQALRQKHQEAQQACRPHNLPVVQAAQQRELEAVEHRIREEQRAMDQKIILELDRKVADQQSTLEKAGVAGFYVTTNPQELMLQMNLLELIRKLQQRGCRAGNAALGLGGPWQSPAAQCDQKGSPVPP
B7: KIAA1949: human host interactor protein, Gene ID 170954, expressed from transfected ORF vector (protein)
chain: MATIPDWKLQLLARRRQEEASVRGREKAERERLSQMPAWKRGLLERRRAKLGLSPGEPSPVLGTVEAGPPDPDESAVLLEAIGPVHQNRFIRQERQQQQQQQQRSEELLAERKPGPLEARERRPSPGEMRDQSPKGRESREERLSPRETRERRLGIGGAQELSLRPLEARDWRQSPGEVGDRSSRLSEAWKWRLSPGETPERSLRLAESREQSPRRKEVESRLSPGESAYQKLGLTEAHKWRPDSRESQEQSLVQLEATEWRLRSGEERQDYSEECGRKEEWPVPGVAPKETAELSETLTREAQGNSSAGVEAAEQRPVEDGERGMKPTEGWKWTLNSGKAREWTPRDIEAQTQKPEPPESAEKLLESPGVEAGEGEAEKEEAGAQGRPLRALQNCCSVPSPLPPEDAGTGGLRQQEEEAVELQPPPPAPLSPPPPAPTAPQPPGDPLMSRLFYGVKAGPGVGAPRRSGHTFTVNPRRSVPPATPATPTSPATVDAAVPGAGKKRYPTAEEILVLGGYLRLSRSCLAKGSPERHHKQLKISFSETALETTYQYPSESSVLEELGPEPEVPSAPNPPAAQPDDEEDEEELLLLQPELQGGLRTKALIVDESCRR
B8: FLJ10726: human host interactor protein, Gene ID 55216, expressed from transfected ORF vector (protein)
chain: MSRIPLGKVLLRNVIRHTDAHNKIQEESDMWKIRELEKQMEDAYRGTKRKMLPSSSSRMRSDGFDEESQRYYWRPKNEISGTLEDDFLKAKSWNKKFYDYEANMPDRWGHSGYKELYPEEFETDSDQQDITNGKKTSPQVKSSTHESRKHKKSKKSHKKKQKKRSHKKQKKSKKEATDITADSSSEFSEETGASGTRKGKQPHKRKKKSRKKSLKKPALFLEAESNTSHSDDSASSSSEESEERDTKKTKRKKREKKAHTSVANNEIQERTNKRTNWKVATDERSAESSEDD
B9: DIPA: human host interactor protein, Gene ID 11007, expressed from transfected ORF vector (protein)
chain: MEAEAGGLEELTDEEMAALGKEELVRRLRREEAARLAALVQRGRLMQEVNRQLQGHLGEIRELKQLNRRLQAENRELRDLCCFLDSERQRGRRAARQWQLFGTQASRAVREDLGGCWQKLAELEGRQEELLRENLALKELCLALGEEWGPRGGPSGAGGSGAGPAPELALPPCGPRDLGDGSSSTGSVGSPDQLPLACSPDD
B10: DAZAP2: human host interactor protein, Gene ID 9802, expressed from transfected ORF vector (protein)
chain: MNSKGQYPTQPTYPVQPPGNPVYPQTLHLPQAPPYTDAPPAYSELYRPSFVHPGAATVPTMSAAFPGASLYLPMAQSVAVGPLGSTIPMAYYPVGPIYPPGSTVLVEGGYDAGARFGAGATAGNIPPPPPGCPPNAAQLAVMQGANVLVTQRKGNFFMGGSDGGYTIW
B11: C1orf94: human host interactor protein, Gene ID 84970, expressed from transfected ORF vector (protein)
chain: MRGGGGCVLALGGQRGFQKERRRMASGNGLPSSSALVAKGPCALGPFPRYIWIHQDTPQDSLDKTCHEIWKRVQGLPEASQPWTSMEQLSVPVVGTLRGNELSFQEEALELSSGKDEISLLVEQEFLSLTKEHSILVEESSGELEVPGSSPEGTRELAPCILAPPLVAGSNERPRASIIVGDKLLKQKVAMPVISSRQDCDSATSTVTDILCAAEVKSSKGTEDRGRILGDSNLQVSKLLSQFPLKSTETSKVPDNKNVLDKTRVTKDFLQDNLFSGPGPKEPTGLSPFLLLPPRPPPARPDKLPELPAQKRQLPVFAKICSKPKADPAVERHHLMEWSPGTKEPKKGQGSLFLSQWPQSQKDACGEEGCCDAVGTASLTLPPKKPTCPAEKNLLYEFLGATKNPSGQPRLRNKVEVDGPELKFNAPVTVADKNNPKYTGNVFTPHFPTAMTSATLNQPLWLNLNYPPPPVFTNHSTFLQYQGLYPQQAARMPYQQALHPQLGCYSQQVMPYNPQQMGQQIFRSSYTPLLSYIPFVQPNYPYPQRTPPKMSANPRDPPLMAGDGPQYLFPQGYGFGSTSGGPLMHSPYFSSSGNGINF

This test relates to HTLV-1 LTR promoter transactivation by HTLV-1 Tax. The experiment in a line: Transactivation assay, HTLV-1 LTR luciferase reporter with HTLV-1 Tax. As to conditions: HEK293 cells co-transfected with pHTLV1LTR-Luc, HTLV-1 Tax and the human ORF; relative luciferase activity 24 h post-transfection; positive if >=2 or <=0.5 and p<0.05. Type of test: cell-based. The source says:
Twenty-four hours post-transfection, cells were washed three times with PBS, lysed and luciferase activities determined from two independent transfection experiments in triplicate. We computed a paired t-test to assess the difference of the means between samples with and without the human interactor. For a trial to be considered positive, the relative luciferase activities has to be >=2 or <=0.5, and the p-value of the t-test<0.05.
Expression vectors encoding human ORFs and HIV-1 Tat or HTLV-1 Tax proteins were tested in a transactivation reporter assay against reporter plasmids harboring HIV-1 or HTLV-1 viral promoter sequences cloned upstream of the luciferase reporter gene. […] Wherever not expressly specified, constructs used herein were generally made by sub-cloning entry clones from the ORFeome V3.1 into suitable destination vectors.
As to B1, the HTLV_LTR transactiv. turned out to be 2.88 fold change.
Take B2: the HTLV_LTR transactiv. stood at 0.43 fold change.
In the case of B3, the HTLV_LTR transactiv. was 0.49 fold change.
For B4 the value was 2.25 fold change; for B5, 0.41 fold change.
For B6, the HTLV_LTR transactiv. is listed as 0.24 fold change.
As for B7, the HTLV_LTR transactiv. is on record as 0.35 fold change.
B8 registered an HTLV_LTR transactiv. of 0.19 fold change.
B9 showed an HTLV_LTR transactiv. of 0.28 fold change.
For B10, the HTLV_LTR transactiv. is 3.31 fold change.
B11: the HTLV_LTR transactiv. is reported as 0.41 fold change.
